Among the data in publication PMC11957393 are fold decrease of interaction compared to VP2 values, retold here.

The target of the experiment is chicken MyD88, full length, Flag-tagged (Flag-MyD88), expressed in HEK293T cells (chicken) (UniProt A5HNF6). Put plainly: co-IP; HEK293T cells co-transfected with the indicated plasmids (2 ug/1x10^6 cells), harvested at 30 h; NP-40 lysis buffer; immunoprecipitated by the Flag tag, blotted for HA and Flag tags.
Chain of UniProt A5HNF6 (A5HNF6 whole entry): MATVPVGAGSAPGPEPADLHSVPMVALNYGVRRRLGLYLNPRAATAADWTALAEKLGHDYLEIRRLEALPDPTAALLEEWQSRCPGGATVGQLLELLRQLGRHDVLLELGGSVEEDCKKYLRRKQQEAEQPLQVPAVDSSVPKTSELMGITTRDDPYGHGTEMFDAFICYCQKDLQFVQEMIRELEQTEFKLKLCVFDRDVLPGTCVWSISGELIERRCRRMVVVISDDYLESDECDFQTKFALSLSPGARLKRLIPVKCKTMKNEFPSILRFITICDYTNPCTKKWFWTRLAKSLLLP

“VP2-HT: IBDV VP2 with the double mutation Q253H/A284T (VP2 of the rescued HT strain), expressed in HEK293T cells (natural protein)” registered a fold decrease of interaction compared to VP2 of 2.9 fold.
